Holding throughout (test): BLI; tip anti-CD3 bsIgG, solution ADI-34145 IgG
For orientation: BLI is a label-free optical method that tracks binding on a fibre tip over time.

One assay addresses T1, CTL-19613 anti-CD3 bsIgG (In the assay the two domains were one scFv (VL-VH orientation, linker not given). It replaced one Fab arm of an anti-HER2 IgG; S354C and Y349C mutations are stated for disulfide stabilization.).
T1 construct: anti-HER2 IgG with one Fab arm replaced by the anti-CD3 scFv (printed 'Vx-VH', read as VL-VH); S354C and Y349C mutations; also called anti-CD3 bsIgG (CTL-19613 scFv); not shown: scFv linker between VL and VH; anti-HER2 heavy and light chains of the other arm; hinge and Fc (with S354C / Y349C)
The method, then:
(§1) ForteBio affinity measurements were performed generally as previously described (Estep et al., MAbs. 2013 5(2):270-8). Briefly, ForteBio affinity measurements were performed by loading antibody IgG or Fabs on-line onto AHC sensors. Sensors were equilibrated off-line in assay buffer for 30 minutes and then monitored on-line for 60 seconds for baseline establishment. For avid binding measurement, sensors with loaded antibodies were exposed to IgG or Fab solutions for 3 minutes, afterwards they were transferred to assay buffer for 3 minutes for off-rate measurement. Kinetics data were fit using a 1:1 binding model in the data analysis software provided by ForteBio to obtain equilibrium dissociation constant (KD=koff/kₒₙ) values. In each column, tip-immobilized antibodies are listed first and solution antibodies second.
(§2) Additional analysis was conducted using bispecific antibody formats incorporating anti-CD3 antibody variable domains. Bispecific antibodies were prepared using standard IgG formats (bsIgG) with replacement of Fab arms with anti-CD3 scFvs in Vx-VH orientation and with S354C and Y349C mutations for disulfide stabilization. Antibodies used for Fab arm replacement were anti-HER2 IgG antibodies, with one Fab arm from each replaced by a scFv corresponding to a different anti-CD3 antibody. […] In each column, tip-immobilized antibodies are listed first and solution antibodies second. Anti-CD3 antibodies associated with incorporated scFvs are listed by antibody number.

The target in another assay is T2, ADI-26916 anti-CD3 bsIgG.
T2 construct: anti-HER2 IgG with one Fab arm replaced by the anti-CD3 scFv (printed 'Vx-VH', read as VL-VH); S354C and Y349C mutations; also called anti-CD3 bsIgG (ADI-26916 scFv); not shown: scFv linker; anti-HER2 Fab arm (heavy and light chain); hinge and Fc with S354C/Y349C; copies: 1 + 1
T2 sequence (VH, as listed by the source limits assumed, chain 1 of 2): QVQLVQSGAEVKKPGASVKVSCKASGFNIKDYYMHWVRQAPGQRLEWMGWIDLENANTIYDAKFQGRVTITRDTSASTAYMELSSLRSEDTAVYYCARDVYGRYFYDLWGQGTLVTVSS
T2 sequence (VL, as listed by the source limits assumed, chain 2 of 2): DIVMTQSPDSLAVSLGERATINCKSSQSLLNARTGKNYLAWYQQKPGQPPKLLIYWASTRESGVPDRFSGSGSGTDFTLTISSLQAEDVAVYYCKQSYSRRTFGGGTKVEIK
How it is done: as §1, §2

A further assay deals with T3, ADI-22523 anti-CD3 bsIgG (In the assayed molecule VL and VH are joined as one scFv (printed 'Vx-VH' orientation) by an undisclosed linker and fused to an Fc, paired with an anti-HER2 half-IgG. They are given here as two …).
T3 construct: anti-HER2 IgG with one Fab arm replaced by the anti-CD3 scFv (printed 'Vx-VH', read as VL-VH); S354C and Y349C mutations; not shown: scFv linker between VL and VH; anti-HER2 heavy and light chains; hinge and Fc with S354C/Y349C
T3 sequence (VH, as listed by the source limits assumed, chain 1 of 2): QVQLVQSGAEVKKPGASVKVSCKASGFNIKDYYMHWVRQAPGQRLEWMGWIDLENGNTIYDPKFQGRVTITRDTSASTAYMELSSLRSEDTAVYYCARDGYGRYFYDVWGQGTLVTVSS
T3 sequence (VL, as listed by the source limits assumed, chain 2 of 2): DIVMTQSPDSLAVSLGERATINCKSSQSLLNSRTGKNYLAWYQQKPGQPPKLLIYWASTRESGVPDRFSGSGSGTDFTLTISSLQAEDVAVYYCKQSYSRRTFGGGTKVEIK
The method, then:
as §1, §2

For another assay, the target named is T4, ADI-26906 anti-CD3 bsIgG.
T4 construct: anti-HER2 IgG with one Fab arm replaced by the anti-CD3 scFv (printed 'Vx-VH', read as VL-VH); S354C and Y349C mutations; also called anti-CD3 bsIgG (ADI-26906 scFv); not shown: scFv linker; anti-HER2 Fab arm (heavy and light chain); hinge and Fc with S354C/Y349C
T4 sequence (VH, as listed by the source limits assumed, chain 1 of 2): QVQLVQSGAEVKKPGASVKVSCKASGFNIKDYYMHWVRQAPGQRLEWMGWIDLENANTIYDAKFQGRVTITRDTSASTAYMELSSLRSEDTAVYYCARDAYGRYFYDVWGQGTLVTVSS
The method, then:
as §1, §2

The target of the next assay is T5, ADI-26954 anti-CD3 bsIgG.
T5 construct: anti-HER2 IgG with one Fab arm replaced by the anti-CD3 scFv (printed 'Vx-VH', read as VL-VH); S354C and Y349C mutations; also called anti-CD3 bsIgG (ADI-26954 scFv); not shown: scFv linker; anti-HER2 Fab arm (heavy and light chain); hinge and Fc with S354C/Y349C
T5 sequence (VH, as listed by the source limits assumed, chain 1 of 2): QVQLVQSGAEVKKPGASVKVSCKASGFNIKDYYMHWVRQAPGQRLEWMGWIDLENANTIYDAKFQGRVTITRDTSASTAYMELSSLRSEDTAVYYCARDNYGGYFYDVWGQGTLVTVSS
T5 sequence (VL, as listed by the source limits assumed, chain 2 of 2): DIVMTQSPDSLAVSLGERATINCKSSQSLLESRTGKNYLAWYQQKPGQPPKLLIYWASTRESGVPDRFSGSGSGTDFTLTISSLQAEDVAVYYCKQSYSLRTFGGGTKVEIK
The method, then: as §1, §2

In another assay the target is T6, ADI-26913 anti-CD3 bsIgG.
T6 construct: anti-HER2 IgG with one Fab arm replaced by the anti-CD3 scFv (printed 'Vx-VH', read as VL-VH); S354C and Y349C mutations; also called anti-CD3 bsIgG (ADI-26913 scFv); not shown: scFv linker; anti-HER2 Fab arm (heavy and light chain); hinge and Fc with S354C/Y349C
T6 sequence (VH, as listed by the source limits assumed, chain 1 of 2): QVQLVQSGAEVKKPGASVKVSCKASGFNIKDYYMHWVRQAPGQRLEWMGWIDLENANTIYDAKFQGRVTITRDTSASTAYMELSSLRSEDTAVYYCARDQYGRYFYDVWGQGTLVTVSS
How it is done: as §1, §2

The target of a further assay is T7, ADI-26920 anti-CD3 bsIgG.
T7 construct: anti-HER2 IgG with one Fab arm replaced by the anti-CD3 scFv (printed 'Vx-VH', read as VL-VH); S354C and Y349C mutations; also called anti-CD3 bsIgG (ADI-26920 scFv); not shown: scFv linker; anti-HER2 Fab arm (heavy and light chain); hinge and Fc with S354C/Y349C
T7 sequence (VH, as listed by the source limits assumed, chain 1 of 2): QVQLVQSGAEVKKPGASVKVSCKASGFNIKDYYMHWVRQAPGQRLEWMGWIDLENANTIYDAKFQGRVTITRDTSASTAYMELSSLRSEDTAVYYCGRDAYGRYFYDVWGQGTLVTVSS
T7 sequence (VL, as listed by the source limits assumed, chain 2 of 2): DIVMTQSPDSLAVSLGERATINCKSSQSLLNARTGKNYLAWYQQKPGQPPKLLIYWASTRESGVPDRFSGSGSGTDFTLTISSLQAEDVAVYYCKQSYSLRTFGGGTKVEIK
The method, then:
as §1, §2

Another assay has as its target T8, CTL-19672 anti-CD3 bsIgG (In the assay the two domains were one scFv (VL-VH orientation, linker not given). It replaced one Fab arm of an anti-HER2 IgG; S354C and Y349C mutations are stated for disulfide stabilization.).
T8 construct: anti-HER2 IgG with one Fab arm replaced by the anti-CD3 scFv (printed 'Vx-VH', read as VL-VH); S354C and Y349C mutations; not shown: scFv linker between VL and VH; anti-HER2 heavy and light chains of the other arm; hinge and Fc (with S354C / Y349C)
The method, then:
as §1, §2

As a reminder, the Kd is a measure of binding affinity in units of concentration. Low readings indicate higher affinity, high ones lower affinity.

T8 sequence (VH, as listed by the source limits assumed, chain 1 of 2): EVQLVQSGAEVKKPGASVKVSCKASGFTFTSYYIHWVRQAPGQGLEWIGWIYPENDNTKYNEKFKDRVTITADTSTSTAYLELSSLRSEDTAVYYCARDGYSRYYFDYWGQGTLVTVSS
T8 sequence (VL, as listed by the source limits assumed, chain 2 of 2): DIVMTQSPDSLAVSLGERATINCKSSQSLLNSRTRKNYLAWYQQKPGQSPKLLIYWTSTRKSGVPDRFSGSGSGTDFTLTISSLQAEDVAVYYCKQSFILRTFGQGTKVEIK

B1: ADI-34145 IgG (antibody, V domains shown)
VH: EVQLLESGGGLVQPGGSLRLSCAASGFTFSSYAMSWVRQAPGKGLEWVSTISGSGGSTYYADSVKGRFTISRDNSKNTLYLQMNSLRAEDTAVYYCARLGGRRGSGSSYYYYYGMDVWGQGTTVTVSS
VL: not shown
notes: anti-ID IgG
Regarding B1, the binding result with CTL-19613 anti-CD3 bsIgG and with CTL-19672 anti-CD3 bsIgG was “no binding” each time. Moreover, the Kd in the assay with ADI-26916 anti-CD3 bsIgG came out at 57.1 nM; in the assay with ADI-22523 anti-CD3 bsIgG, 9.13 nM; with ADI-26906 anti-CD3 bsIgG, 13.4 nM; with ADI-26954 anti-CD3 bsIgG, 27.8 nM; with ADI-26913 anti-CD3 bsIgG, 14.7 nM; in the assay with ADI-26920 anti-CD3 bsIgG, 6.72 nM.

Source of the values: patent US20250019439A1 (Adimab, published 2025).
